From publication doi:10.1101/2022.04.14.488316 (bioRxiv, 2022)
No end group written: not given here.

Assays:
Test in all cases: fluorescence polarisation
[1] = target: VHL-ElonginC-ElonginB (VCB) with VHL N67Q (UniProt P40337;Q15369;Q15370, N67Q)
[2] = target: VHL-ElonginC-ElonginB (VCB), wild type (UniProt P40337;Q15369;Q15370)
[3] = target: VHL-ElonginC-ElonginB (VCB) with VHL P71I (UniProt P40337;Q15369;Q15370, P71I)

Measured: binding result

Sequence of VHL-ElonginC-ElonginB (VCB) with VHL P71I (P40337 54-213 P71I, chain 1 of 3): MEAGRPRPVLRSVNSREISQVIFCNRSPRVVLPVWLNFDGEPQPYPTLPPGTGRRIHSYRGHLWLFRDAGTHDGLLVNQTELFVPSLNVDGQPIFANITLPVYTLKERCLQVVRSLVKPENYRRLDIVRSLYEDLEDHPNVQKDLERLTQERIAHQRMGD
Sequence of VHL-ElonginC-ElonginB (VCB) with VHL P71I (Q15369 17-112, chain 2 of 3): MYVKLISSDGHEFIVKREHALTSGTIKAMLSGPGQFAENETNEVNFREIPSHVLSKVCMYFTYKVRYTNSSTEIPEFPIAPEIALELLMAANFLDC
Sequence of VHL-ElonginC-ElonginB (VCB) with VHL P71I (Q15370 1-104, chain 3 of 3): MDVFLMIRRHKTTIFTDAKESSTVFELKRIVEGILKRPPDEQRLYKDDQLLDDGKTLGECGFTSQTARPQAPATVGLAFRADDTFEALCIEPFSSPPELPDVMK
Sequence of VHL-ElonginC-ElonginB (VCB), wild type (P40337 54-213, chain 1 of 3): as the sequence (P40337 54-213 P71I, chain 1 of 3) above, with I18P counted along it
Sequence of VHL-ElonginC-ElonginB (VCB), wild type (Q15369 17-112, chain 2 of 3): as the sequence (Q15369 17-112, chain 2 of 3) above
Sequence of VHL-ElonginC-ElonginB (VCB), wild type (Q15370 1-104, chain 3 of 3): as the sequence (Q15370 1-104, chain 3 of 3) above
Sequence of VHL-ElonginC-ElonginB (VCB) with VHL N67Q (P40337 54-213 N67Q, chain 1 of 3): as the sequence (P40337 54-213 P71I, chain 1 of 3) above, with N14Q, I18P counted along it
Sequence of VHL-ElonginC-ElonginB (VCB) with VHL N67Q (Q15369 17-112, chain 2 of 3): as the sequence (Q15369 17-112, chain 2 of 3) above
Sequence of VHL-ElonginC-ElonginB (VCB) with VHL N67Q (Q15370 1-104, chain 3 of 3): as the sequence (Q15370 1-104, chain 3 of 3) above

B1: 5,6-carboxyfluorescein (FAM)-labeled HIF-1α peptide JC9 (peptide)
peptide: DEALAPYIPMDDDFQLRSF
modifications: also: FAM label, site not given here
binds: all assays above
